From the supplement of paper PMC10567573

B1: VENTX (parent)
chain: VFQHHQYLSPLERKRLAREMQLSE
B2: SPSB4 (parent)
chain: LDMDEGTLSFIVDGQYLGVAFRGL

Variants of: B1
Test: protein stability index of a GFP-peptide fusion (GPS, HEK-293T) (PSI 1-6); higher = more stable
Settings: c terminus: a fixed tail appended
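Note: lentivirally expressed fusions sorted by FACS into six bins by GFP to DsRed ratio, PSI derived from sequencing read proportions per bin multiplied by bin number.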

Variant	protein stability index
VFQHHQYLSPLERKRLAREMQHSE [L22H]	2.93
VFQHHQYLSPLERKRLAREMQWSE [L22W]	1.96
VFQHHQYLSPLERKRLAREMQASE [L22A]	2.72
VFQHHQYLSPLERKRLAREMQTSE [L22T]	3.12
VFQHHQYLSPLERKRLAREMQRSE [L22R]	2.44
VFQHHQYLSPLERKRLAREMQDSE [L22D]	3.29
VFQHHQYLSPLERKRLAREMQESE [L22E]	2.85
VFQHHQYLSPLERKRLAREMQSSE [L22S]	2.56
VFQHHQYLSPLERKRLAREMQNSE [L22N]	3.04
VFQHHQYLSPLERKRLAREMQKSE [L22K]	3.62
VFQHHQYLSPLERKRLAREMQVSE [L22V]	2.27
VFQHHQYLSPLERKRLAREMQQSE [L22Q]	2.38
VFQHHQYLSPLERKRLAREMQISE [L22I]	1.93
VFQHHQYLSPLERKRLAREMQGSE [L22G]	1.89
VFQHHQYLSPLERKRLAREMQPSE [L22P]	2.68
VFQHHQYLSPLERKRLAREMQCSE [L22C]	2.84
VFQHHQYLSPLERKRLAREMQMSE [L22M]	2.42
VFQHHQYLSPLERKRLAREMQFSE [L22F]	1.83
VFQHHQYLSPLERKRLAREMQYSE [L22Y]	2.17
VFQHHQYLSPLERKRLAREAQLSE [M20A]	2.8
VFQHHQYLSPLERKRLAREFQLSE [M20F]	2.04
VFQHHQYLSPLERKRLAREQQLSE [M20Q]	2.6
VFQHHQYLSPLERKRLARERQLSE [M20R]	3.25

Variant	protein stability index
VFQHHQYLSPLERKRLARETQLSE [M20T]	2.36
VFQHHQYLSPLERKRLAREGQLSE [M20G]	2.71
VFQHHQYLSPLERKRLAREVQLSE [M20V]	2.29
VFQHHQYLSPLERKRLAREIQLSE [M20I]	2.39
VFQHHQYLSPLERKRLAREHQLSE [M20H]	2.57
VFQHHQYLSPLERKRLAREWQLSE [M20W]	1.67
VFQHHQYLSPLERKRLAREKQLSE [M20K]	2.54
VFQHHQYLSPLERKRLAREPQLSE [M20P]	2.78
VFQHHQYLSPLERKRLARECQLSE [M20C]	3.43
VFQHHQYLSPLERKRLARELQLSE [M20L]	2.75
VFQHHQYLSPLERKRLARESQLSE [M20S]	2.62
VFQHHQYLSPLERKRLAREYQLSE [M20Y]	2.96
VFQHHQYLSPLERKRLARENQLSE [M20N]	2.53
VFQHHQYLSPLERKRLAREDQLSE [M20D]	3.1
VFQHHQYLSPLERKRLAREEQLSE [M20E]	3.28
VFQHHQYLSPLERKRLAREMQLSF [E24F]	1.93
VFQHHQYLSPLERKRLAREMQLSV [E24V]	1.39
VFQHHQYLSPLERKRLAREMQLSS [E24S]	2.65
VFQHHQYLSPLERKRLAREMQLST [E24T]	2.27
VFQHHQYLSPLERKRLAREMQLSP [E24P]	2.1
VFQHHQYLSPLERKRLAREMQLSW [E24W]	2.76
VFQHHQYLSPLERKRLAREMQLSL [E24L]	2.07
VFQHHQYLSPLERKRLAREMQLSY [E24Y]	2.07

Variant	protein stability index
VFQHHQYLSPLERKRLAREMQLSM [E24M]	2.39
VFQHHQYLSPLERKRLAREMQLSG [E24G]	2.3
VFQHHQYLSPLERKRLAREMQLSI [E24I]	2.23
VFQHHQYLSPLERKRLAREMQLSA [E24A]	2.14
VFQHHQYLSPLERKRLAREMQLSR [E24R]	1.95
VFQHHQYLSPLERKRLAREMQLSN [E24N]	2.37
VFQHHQYLSPLERKRLAREMQLSC [E24C]	1.82
VFQHHQYLSPLERKRLAREMQLSQ [E24Q]	2.5
VFQHHQYLSPLERKRLAREMQLSK [E24K]	2.29
VFQHHQYLSPLERKRLAREMQLSD [E24D]	2.48
VFQHHQYLSPLERKRLAREMQLSH [E24H]	2.47
VFQHHQYLSPLERKRLAREMTLSE [Q21T]	2.49
VFQHHQYLSPLERKRLAREMALSE [Q21A]	2.49
VFQHHQYLSPLERKRLAREMHLSE [Q21H]	2.68
VFQHHQYLSPLERKRLAREMRLSE [Q21R]	2.99
VFQHHQYLSPLERKRLAREMGLSE [Q21G]	2.51
VFQHHQYLSPLERKRLAREMKLSE [Q21K]	2.66
VFQHHQYLSPLERKRLAREMCLSE [Q21C]	2.5
VFQHHQYLSPLERKRLAREMDLSE [Q21D]	3.61
VFQHHQYLSPLERKRLAREMELSE [Q21E]	2.54
VFQHHQYLSPLERKRLAREMLLSE [Q21L]	2.59
VFQHHQYLSPLERKRLAREMYLSE [Q21Y]	3.06
VFQHHQYLSPLERKRLAREMSLSE [Q21S]	2.77

Variant	protein stability index
VFQHHQYLSPLERKRLAREMFLSE [Q21F]	1.98
VFQHHQYLSPLERKRLAREMILSE [Q21I]	2.32
VFQHHQYLSPLERKRLAREMNLSE [Q21N]	2.29
VFQHHQYLSPLERKRLAREMMLSE [Q21M]	2.06
VFQHHQYLSPLERKRLAREMPLSE [Q21P]	2.64
VFQHHQYLSPLERKRLAREMVLSE [Q21V]	2.44
VFQHHQYLSPLERKRLAREMWLSE [Q21W]	2.43
VFQHHQYLSPLERKRLARDMQLSE [E19D]	2.67
VFQHHQYLSPLERKRLARVMQLSE [E19V]	1.91
VFQHHQYLSPLERKRLARPMQLSE [E19P]	2.44
VFQHHQYLSPLERKRLARYMQLSE [E19Y]	1.91
VFQHHQYLSPLERKRLARKMQLSE [E19K]	1.94
VFQHHQYLSPLERKRLARCMQLSE [E19C]	1.91
VFQHHQYLSPLERKRLARFMQLSE [E19F]	1.76
VFQHHQYLSPLERKRLARGMQLSE [E19G]	2.06
VFQHHQYLSPLERKRLARTMQLSE [E19T]	2.16
VFQHHQYLSPLERKRLARMMQLSE [E19M]	1.78
VFQHHQYLSPLERKRLARRMQLSE [E19R]	2.38
VFQHHQYLSPLERKRLARAMQLSE [E19A]	2.08
VFQHHQYLSPLERKRLARQMQLSE [E19Q]	3.09
VFQHHQYLSPLERKRLARWMQLSE [E19W]	1.91
VFQHHQYLSPLERKRLARHMQLSE [E19H]	2.17
VFQHHQYLSPLERKRLARLMQLSE [E19L]	1.81

Variant	protein stability index
VFQHHQYLSPLERKRLARSMQLSE [E19S]	2.42
VFQHHQYLSPLERKRLARNMQLSE [E19N]	3.28
VFQHHQYLSPLERKRLARIMQLSE [E19I]	1.86
VFQHHQYLSPLERKRLAREMQLIE [S23I]	1.97
VFQHHQYLSPLERKRLAREMQLRE [S23R]	2.33
VFQHHQYLSPLERKRLAREMQLHE [S23H]	2.37
VFQHHQYLSPLERKRLAREMQLVE [S23V]	2.18
VFQHHQYLSPLERKRLAREMQLME [S23M]	2.4
VFQHHQYLSPLERKRLAREMQLAE [S23A]	3.5
VFQHHQYLSPLERKRLAREMQLLE [S23L]	2.84
VFQHHQYLSPLERKRLAREMQLPE [S23P]	2.78
VFQHHQYLSPLERKRLAREMQLTE [S23T]	2.44
VFQHHQYLSPLERKRLAREMQLGE [S23G]	2.5
VFQHHQYLSPLERKRLAREMQLYE [S23Y]	2.42
VFQHHQYLSPLERKRLAREMQLWE [S23W]	2.04
VFQHHQYLSPLERKRLAREMQLDE [S23D]	2.66
VFQHHQYLSPLERKRLAREMQLEE [S23E]	3.23
VFQHHQYLSPLERKRLAREMQLCE [S23C]	2.41
VFQHHQYLSPLERKRLAREMQLFE [S23F]	2.98
VFQHHQYLSPLERKRLAREMQLQE [S23Q]	3.04
VFQHHQYLSPLERKRLAREMQLNE [S23N]	2.25
VFQHHQYLSPLERKRLAREMQLKE [S23K]	2.22

Variants of: B2
Test: as above
Settings: c terminus: a fixed tail appended

Variant	protein stability index
LDMDEGTLSFIVDGQYLGVHFRGL [A20H]	1.89
LDMDEGTLSFIVDGQYLGVSFRGL [A20S]	2
LDMDECTLSFIVDGQYLGVAFRGL [G6C]	3.03
LDMDEMTLSFIVDGQYLGVAFRGL [G6M]	2.66
LDMDEETLSFIVDGQYLGVAFRGL [G6E]	1.98
LDMDEGTLSFIVDGYYLGVAFRGL [Q15Y]	2.62
LDMDEGTLSFIVDGAYLGVAFRGL [Q15A]	2.87
LDMSEGTLSFIVDGQYLGVAFRGL [D4S]	2.52
LDMMEGTLSFIVDGQYLGVAFRGL [D4M]	3.51
LDMDEGTRSFIVDGQYLGVAFRGL [L8R]	2.11
LDMDEGTWSFIVDGQYLGVAFRGL [L8W]	3.21
LDMDEGTMSFIVDGQYLGVAFRGL [L8M]	2.72
LDMDEGTESFIVDGQYLGVAFRGL [L8E]	1.94
LDMDEGTLSFIVDGQYQGVAFRGL [L17Q]	2.09
LDMDEGTLSFIVDGQYYGVAFRGL [L17Y]	2.55
LDMDEGTLSFIVDGQYFGVAFRGL [L17F]	3.76
LDMDEGTLSFIVDGQYEGVAFRGL [L17E]	1.79
LDMDEGTLSFIGDGQYLGVAFRGL [V12G]	1.94
LDMDEGTLSFICDGQYLGVAFRGL [V12C]	3.24
LDMDEGTLSFIVDGQSLGVAFRGL [Y16S]	1.84
LDMDEGTLSFIVDGQLLGVAFRGL [Y16L]	2.52
LDMDEGTLSFIVDGQMLGVAFRGL [Y16M]	2.81
LDMDEGTLSFIVDGQNLGVAFRGL [Y16N]	1.59
LDMDEGTLSFIVDGQILGVAFRGL [Y16I]	3.04
LDMDEGTLSFIVFGQYLGVAFRGL [D13F]	3.41

Variant	protein stability index
LDMDEGTLSFIVGGQYLGVAFRGL [D13G]	2.8
LDMDEGTLSFIVQGQYLGVAFRGL [D13Q]	2.77
LDMDEGTLSFIVCGQYLGVAFRGL [D13C]	3.49
LDMDEGTLSRIVDGQYLGVAFRGL [F10R]	2.21
LDMDEGTLSTIVDGQYLGVAFRGL [F10T]	2.44
LDMDEGTLSCIVDGQYLGVAFRGL [F10C]	2.49
LDMDEGTLSGIVDGQYLGVAFRGL [F10G]	1.5
LDMDEGTLSAIVDGQYLGVAFRGL [F10A]	1.84
LDMDEGTLSFCVDGQYLGVAFRGL [I11C]	3.29
LDMDEGTLSFGVDGQYLGVAFRGL [I11G]	2.45
LDMDEGTLSFIVDGQYLGCAFRGL [V19C]	2.33
LDMDEGTLSFIVDGQYLGLAFRGL [V19L]	1.94
LDMDEGTLSFIVDGQYLGTAFRGL [V19T]	2.1
LDMDEGWLSFIVDGQYLGVAFRGL [T7W]	3.12
LDMDEGTLSFIVDGQYLGVARRGL [F21R]	1.65
LDMDEGTLSFIVDGQYLGVATRGL [F21T]	2.04
LDMDEGTLSFIVDGQYLGVAHRGL [F21H]	1.72
LDADEGTLSFIVDGQYLGVAFRGL [M3A]	2.05
LDDDEGTLSFIVDGQYLGVAFRGL [M3D]	1.59
LDMDEGTLSFIVDDQYLGVAFRGL [G14D]	2.32
LDMDEGTLSFIVDQQYLGVAFRGL [G14Q]	1.5
LDMDEGTLSFIVDFQYLGVAFRGL [G14F]	2.69
LDMDEGTLSFIVDTQYLGVAFRGL [G14T]	3.42
LDMDEGTLSFIVDSQYLGVAFRGL [G14S]	2.17
LDMDEGTLSFIVDGQYLGVAFRGS [L24S]	1.88

Variant	protein stability index
LDMDEGTLSFIVDGQYLGVAFRGH [L24H]	3.29
LDMDEGTLSFIVDGQYLGVAFRGM [L24M]	1.84
LDMDEGTLSFIVDGQYLFVAFRGL [G18F]	2.44
LDMDEGTLSFIVDGQYLRVAFRGL [G18R]	2.38
LDMDEGTLSFIVDGQYLLVAFRGL [G18L]	2.31
LDMDEGTLSFIVDGQYLWVAFRGL [G18W]	1.91
LYMDEGTLSFIVDGQYLGVAFRGL [D2Y]	2.74
LWMDEGTLSFIVDGQYLGVAFRGL [D2W]	2.23
LLMDEGTLSFIVDGQYLGVAFRGL [D2L]	2.87
CDMDEGTLSFIVDGQYLGVAFRGL [L1C]	3.04
VDMDEGTLSFIVDGQYLGVAFRGL [L1V]	2.51
QDMDEGTLSFIVDGQYLGVAFRGL [L1Q]	1.53
LDMDRGTLSFIVDGQYLGVAFRGL [E5R]	1.9
LDMDVGTLSFIVDGQYLGVAFRGL [E5V]	3.95
LDMDEGTLSFIVDGQYLGVAFRAL [G23A]	1.31
LDMDEGTLSFIVDGQYLGVAFRHL [G23H]	2.5
LDMDEGTLSFIVDGQYLGVAFDGL [R22D]	2.41
LDMDEGTLSFIVDGQYLGVAFEGL [R22E]	2.05
LDMDEGTLSFIVDGQYLGVAFYGL [R22Y]	3.56
LDMDEGTLSFIVDGQYLGVAFFGL [R22F]	2.57
LDMDEGTLSFIVDGQYLGVAFIGL [R22I]	2.24
LDMDEGTLSFIVDGQYLGVAFKGL [R22K]	2.01
LDMDEGTLAFIVDGQYLGVAFRGL [S9A]	3.98
LDMDEGTLDFIVDGQYLGVAFRGL [S9D]	1.87
